Assay results: IntAct's records for PubMed 19661922

B1: 5-hydroxytryptamine receptor 4 (Mus musculus), P97288 (parent)
chain: MDKLDANVSSNEGFRSVEKVVLLTFLAVVILMAILGNLLVMVAVCRDRQLRKIKTNYFIVSLAFADLLVSVLVMPFGAIELVQDIWAYGEMFCLVRTSLDVLLTTASIFHLCCISLDRYYAICCQPLVYRNKMTPLRIALMLGGCWVLPMFISFLPIMQGWNNIGIVDVIEKRKFSHNSNSTWCVFMVNKPYAITCSVVAFYIPFLLMVLAYYRIYVTAKEHAQQIQMLQRAGATSESRPQPADQHSTHRMRTETKAAKTLCVIMGCFCFCWAPFFVTNIVDPFIDYTVPEQVWTAFLWLGYINSGLNPFLYAFLNKSFRRAFLIILCCDDERYKRPPILGQTVPCSTTTINGSTHVLRDTVECGGQWESRCHLTATSPLVAAQPSDT

Key:
grk5_human GRK5, P34947 [1] = variants of: B1; details: with grk5_human GRK5, P34947
grk5_human GRK5, P34947, sequence (P34947 whole entry, looked up): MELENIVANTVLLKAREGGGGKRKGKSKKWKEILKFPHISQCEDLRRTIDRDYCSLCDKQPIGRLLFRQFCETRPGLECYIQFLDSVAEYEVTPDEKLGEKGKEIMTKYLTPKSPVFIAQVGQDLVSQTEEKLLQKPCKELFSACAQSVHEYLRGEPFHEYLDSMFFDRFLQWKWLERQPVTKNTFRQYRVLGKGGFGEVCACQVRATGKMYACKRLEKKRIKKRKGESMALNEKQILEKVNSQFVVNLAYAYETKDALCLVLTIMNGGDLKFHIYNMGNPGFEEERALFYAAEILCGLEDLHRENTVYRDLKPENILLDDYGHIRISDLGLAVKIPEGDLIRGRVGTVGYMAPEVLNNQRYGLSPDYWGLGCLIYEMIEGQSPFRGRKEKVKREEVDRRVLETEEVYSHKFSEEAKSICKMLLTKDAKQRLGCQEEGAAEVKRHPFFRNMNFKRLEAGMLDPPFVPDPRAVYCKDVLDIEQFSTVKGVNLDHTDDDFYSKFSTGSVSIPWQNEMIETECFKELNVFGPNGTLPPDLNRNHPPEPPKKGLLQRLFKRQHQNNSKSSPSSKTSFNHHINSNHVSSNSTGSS

grk5_human GRK5, P34947 [2] = variants of: B1; details: with grk5_human GRK5, P34947; remark: listed apart in the source

Row | Variant | effect of a mutation on the interaction (grk5_human GRK5, P34947 [1]) | effect of a mutation on the interaction (grk5_human GRK5, P34947 [2])
1 | E332A | decreasing interaction | disrupting interaction
2 | D330A | decreasing interaction | disrupting interaction
3 | D331A | decreasing interaction | disrupting interaction
